From patent EP2045266A1, “Methods for treating and diagnosing a cancer secreting cath-D or Alzheimer's disease” (priority 2007, dated 2009) come the findings set out here.

In the assay the target is M6P receptors. Kind of assay: cell-based or functional assay.

Sequence of pro-cath-D (52 kDa precursor of human cathepsin D), P07339 21-412 (enzyme) (P07339 21-412 limits assumed): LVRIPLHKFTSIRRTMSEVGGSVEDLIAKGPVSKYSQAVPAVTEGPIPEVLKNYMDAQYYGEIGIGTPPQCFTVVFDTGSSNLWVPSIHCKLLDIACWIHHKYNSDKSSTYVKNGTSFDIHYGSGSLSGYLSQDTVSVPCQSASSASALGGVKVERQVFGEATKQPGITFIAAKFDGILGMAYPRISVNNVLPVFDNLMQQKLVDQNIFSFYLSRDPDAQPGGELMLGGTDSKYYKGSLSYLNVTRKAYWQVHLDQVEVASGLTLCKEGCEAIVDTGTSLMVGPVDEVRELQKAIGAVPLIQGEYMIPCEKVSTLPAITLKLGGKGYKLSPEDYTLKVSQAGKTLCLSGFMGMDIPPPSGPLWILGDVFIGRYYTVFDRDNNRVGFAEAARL

For the substance “pro-cath-D (52 kDa precursor of human cathepsin D), P07339 21-412 (enzyme)”, the decrease in internalization of labelled pro-cath-D by HMF fibroblasts over 3 h with excess soluble M6P (10 mM) was determined as 82%.
